Literature values, collected in PMC2488365.

Biological target: penton base (Human adenovirus 2) (UniProt P03276)
Chain of UniProt P03276 (P03276 whole entry): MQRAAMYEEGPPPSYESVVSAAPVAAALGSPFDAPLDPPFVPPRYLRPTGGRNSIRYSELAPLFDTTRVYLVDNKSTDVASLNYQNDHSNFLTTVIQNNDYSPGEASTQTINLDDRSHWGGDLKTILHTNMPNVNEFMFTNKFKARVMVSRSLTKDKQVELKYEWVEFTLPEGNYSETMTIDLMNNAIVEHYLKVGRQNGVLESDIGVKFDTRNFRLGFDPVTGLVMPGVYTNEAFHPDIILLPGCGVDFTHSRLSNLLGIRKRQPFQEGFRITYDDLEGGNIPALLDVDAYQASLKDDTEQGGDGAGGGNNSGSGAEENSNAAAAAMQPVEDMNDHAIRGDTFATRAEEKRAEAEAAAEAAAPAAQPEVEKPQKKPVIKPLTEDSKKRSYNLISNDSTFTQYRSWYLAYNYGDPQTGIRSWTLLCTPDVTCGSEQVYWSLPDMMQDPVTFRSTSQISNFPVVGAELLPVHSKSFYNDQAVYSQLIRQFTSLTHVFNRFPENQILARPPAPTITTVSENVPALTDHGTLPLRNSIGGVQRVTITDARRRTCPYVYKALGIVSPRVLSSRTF

In the case of fiber (from UniProt P03275), the Kd is given as 200 nM.
